Consider one protein from patent US6146862A.

In general, Km refers to the concentration of substrate that gives half-maximal velocity.

Substrate in this data set: NC(=O)C1=CN([C@@H]2O[C@H](COP(=O)(O)OP(=O)(O)OC[C@H]3O[C@@H](n4cnc5c(N)ncnc54)[C@H](O)[C@@H]3O)[C@@H](O)[C@H]2O)C=CC1
Nature of the data set: purified protein, by the assay type. Particulars: other: recombinant enzyme purified from E. coli JM109/pSDE1, assay 50 mM Tris-HCl pH 8.5, 0.06 mM DCIP, 30° C.

B1: Bacillus stearothermophilus UK-563 thermostable diaphorase, recombinant (E. coli JM109/pSDE1), SEQ ID No.1 (Geobacillus stearothermophilus) (protein)
chain: MTNVLYITAHPHDDTQSYSMAVGKAFIDTYKQVHPDHEVIHLDLYKEYIPEIDVDVFSGWGKLRSGKSFEELSDEEKAKVGRMNELCEQFISADKYVFVTPMWNFSFPPVLKAYIDAVAVAGKTFKYTEQGPVGLLTDKKALHIQARGGFYSEGPAAEMEMGHRYLSVIMQFFGVPSFEGLFVEGHAAVPEKAEEIKANAIARAKDLAHTF
On to B1, for which the Km stood at 500 µM.
